Measurements published in US9580731B2, “Methods of producing 7-carbon chemicals via c1 carbon chain elongation associated with coenzyme B synthesis” (INVISTA North America S.á r.l., priority 2012, dated 2017).

Experiments:
Type in all cases: biochemical
[1] = Carboxylate reductase activity assay, pimelate to pimelate semialdehyde (NADPH consumption); conditions: 2 mM pimelate, enhanced by gene product of sfp, room temperature, 20 min, against empty vector control, FIG. 10
Protocol: A sequence encoding a HIS-tag was added to the genes from Segniliparus rugosus and Segniliparus rotundus that encode the carboxylate reductases of SEQ ID NOs: 4 and 7, respectively (see FIG. 7), such that N-terminal HIS tagged carboxylate reductases could be produced. Each of the modified genes was cloned into a pET Duet expression vector along with a sfp gene encoding a HIS-tagged phosphopantetheine transferase from Bacillus subtilis, both under the T7 promoter. Each expression vector was transformed into a BL21[DE3] E. coli host and the resulting recombinant E. coli strains were cultivated at 37° C. in a 250 mL shake flask culture containing 50 mL LB media and antibiotic selection pressure, with shaking at 230 rpm. Each culture was induced overnight at 37° C. using an auto-induction media.
The pellet from each induced shake flask culture was harvested via centrifugation. Each pellet was resuspended and lysed via sonication, and the cell debris was separated from the supernatant via centrifugation. […]
Enzyme activity assays (i.e., from pimelate to pimelate semialdehyde) were performed in triplicate in a buffer composed of a final concentration of 50 mM HEPES buffer (pH=7.5), 2 mM pimelate, 10 mM MgCl2, 1 mM ATP and 1 mM NADPH. […] The consumption of NADPH was monitored by absorbance at 340 nm.

[2] = Thioesterase enzyme activity assay, pimeloyl-CoA to pimelate (release of CoA, Ellman's reagent); conditions: 667 μM pimeloyl-CoA, 0.8 μM enzyme, pH 7.4, 37° C., 20 min, relative to empty vector control, FIG. 8
Protocol: A sequence encoding an N-terminal His tag was added to the tesB gene from Escherichia coli that encodes a thioesterase (SEQ ID NO 1, see FIG. 7), such that an N-terminal HIS tagged thioesterase could be produced. The modified tesB gene was cloned into a pET15b expression vector under control of the T7 promoter. The expression vector was transformed into a BL21[DE3] E. coli host. The resulting recombinant E. coli strain was cultivated at 37° C. in a 500 mL shake flask culture containing 50 mL Luria Broth (LB) media and antibiotic selection pressure, with shaking at 230 rpm. The culture was induced overnight at 17° C. using 0.5 mM IPTG.
The pellet from the induced shake flask culture was harvested via centrifugation. The pellet was resuspended and lysed in Y-Per™ solution (ThermoScientific, Rockford, Ill.). The cell debris was separated from the supernatant via centrifugation. […]
The enzyme activity assay was performed in triplicate in a buffer composed of 50 mM phosphate buffer (pH=7.4), 0.1 mM Ellman's reagent, and 667 μM of pimeloyl-CoA (as substrate). […] The release of Coenzyme A was monitored by absorbance at 412 nm. The absorbance associated with the substrate only control, which contained boiled enzyme, was subtracted from the active enzyme assay absorbance and compared to the empty vector control.

[3] = Carboxylate reductase activity assay, N7-acetyl-7-aminoheptanoate to N7-acetyl-7-aminoheptanal (NADPH consumption); conditions: 2 mM N7-acetyl-7-aminoheptanoate, enhanced by gene product of sfp, room temperature, 20 min, against empty vector control, FIG. 12
Protocol: The activity of each of the N-terminal His-tagged carboxylate reductases of SEQ ID NOs: 3, 6, and 7 (see Examples 4, and FIG. 7) for converting N7-acetyl-7-aminoheptanoate to N7-acetyl-7-aminoheptanal was assayed in triplicate in a buffer composed of a final concentration of 50 mM HEPES buffer (pH=7.5), 2 mM N7-acetyl-7-aminoheptanoate, 10 mM MgCl2, 1 mM ATP, and 1 mM NADPH. The assays were initiated by adding purified carboxylate reductase and phosphopantetheine transferase or the empty vector control to the assay buffer containing the N7-acetyl-7-aminoheptanoate then incubated at room temperature for 20 min. The consumption of NADPH was monitored by absorbance at 340 nm.

B1: SEQ ID NO 4: Segniliparus rugosus carboxylate reductase, Genbank Accession No. EFV11917.1 (protein, listed as Segniliparus rugosus)
chain: MGDGEERAKRFFQRIGELSATDPQFAAAAPDPAVVEAVSDPSLSFTRYLDTLMRGYAERPALAHRVGAGYETISYGELWARVGAIAAAWQADGLAPGDFVATVGFTSPDYVAVDLAAARSGLVSVPLQAGASLAQLVGILEETEPKVLAASASSLEGAVACALAAPSVQRLVVFDLRGPDASESAADERRGALADAEEQLARAGRAVVVETLADLAARGEALPEAPLFEPAEGEDPLALLIYTSGSTGAPKGAMYSQRLVSQLWGRTPVVPGMPNISLHYMPLSHSYGRAVLAGALSAGGTAHFTANSDLSTLFEDIALARPTFLALVPRVCEMLFQESQRGQDVAELRERVLGGRLLVAVCGSAPLSPEMRAFMEEVLGFPLLDGYGSTEALGVMRNGIIQRPPVIDYKLVDVPELGYRTTDKPYPRGELCIRSTSLISGYYKRPEITAEVFDAQGYYKTGDVMAEIAPDHLVYVDRSKNVLKLSQGEFVAVAKLEAAYGTSPYVKQIFVYGNSERSFLLAVVVPNAEVLGARDQEEAKPLIAASLQKIAKEAGLQSYEVPRDFLIETEPFTTQNGLLSEVGKLLRPKLKARYGEALEARYDEIAHGQADELRALRDGAGQRPVVETVVRAAVAISGSEGAEVGPEANFADLGGDSLSALSLANLLHDVFEVEVPVRIIIGPTASLAGIAKHIEAERAGASAPTAASVHGAGATRIRASELTLEKFLPEDLLAAAKGLPAADQVRTVLLTGANGWLGRFLALEQLERLARSGQDGGKLICLVRGKDAAAARRRIEETLGTDPALAARFAELAEGRLEVVPGDVGEPKFGLDDAAWDRLAEEVDVIVHPAALVNHVLPYHQLFGPNVVGTAEIIRLAITAKRKPVTYLSTVAVAAGVEPSSFEEDGDIRAVVPERPLGDGYANGYGNSKWAGEVLLREAHELVGLPVAVFRSDMILAHTRYTGQLNVPDQFTRLVLSLLATGIAPKSFYQQGAAGERQRAHYDGIPVDFTAEAITTLGAEPSWFDGGAGFRSFDVFNPHHDGVGLDEFVDWLIEAGHPISRIDDHKEWFARFETAVRGLPEAQRQHSLLPLLRAYSFPHPPVDGSVYPTGKFQGAVKAAQVGSDHDVPHLGKALIVKYADDLKALGLL
carboxylate reductase activity for converting pimelate to pimelate semialdehyde (NADPH consumption, absorbance at 340 nm) [1]: accepted pimelate as substrate

B2: gene product of tesB: Escherichia coli thioesterase encoded by tesB, GenBank Accession No. AAA24665.1 (protein, listed as Escherichia coli)
chain: MSQALKNLLTLLNLEKIEEGLFRGQSEDLGLRQVFGGQVVGQALYAAKETVPEERLVHSFHSYFLRPGDSKKPIIYDVETLRDGNSFSARRVAAIQNGKPIFYMTASFQAPEAGFEHQKTMPSAPAPDGLPSETQIAQSLAHLLPPVLKDKFICDRPLEVRPVEFHNPLKGHVAEPHRQVWIRANGSVPDDLRVHQYLLGYASDLNFLPVALQPHGIGFLEPGIQIATIDHSMWFHRPFNLNEWLLYSVESTSASSARGFVRGEFYTQDGVLVASTVQEGVMRNHN
thioesterase activity for converting pimeloyl-CoA to pimelate (released CoA, absorbance at 412 nm) [2]: accepted pimeloyl-CoA as substrate

B3: SEQ ID NO 6: Mycobacterium massiliense carboxylate reductase, Genbank Accession No. EIV11143.1 (protein)
chain: MTNETNPQQEQLSRRIESLRESDPQFRAAQPDPAVAEQVLRPGLHLSEAIAALMTGYAERPALGERARELVIDQDGRTTLRLLPRFDTTTYGELWSRTTSVAAAWHHDATHPVKAGDLVATLGFTSIDYTVLDLAIMILGGVAVPLQTSAPASQWTTILAEAEPNTLAVSIELIGAAMESVRATPSIKQVVVFDYTPEVDDQREAFEAASTQLAGTGIALETLDAVIARGAALPAAPLYAPSAGDDPLALLIYTSGSTGAPKGAMHSENIVRRWWIREDVMAGTENLPMIGLNFMPMSHIMGRGTLTSTLSTGGTGYFAASSDMSTLFEDMELIRPTALALVPRVCDMVFQRFQTEVDRRLASGDTASAEAVAAEVKADIRDNLFGGRVSAVMVGSAPLSEELGEFIESCFELNLTDGYGSTEAGMVFRDGIVQRPPVIDYKLVDVPELGYFSTDKPHPRGELLLKTDGMFLGYYKRPEVTASVFDADGFYMTGDIVAELAHDNIEIIDRRNNVLKLSQGEFVAVATLEAEYANSPVVHQIYVYGSSERSYLLAVVVPTPEAVAAAKGDAAALKTTIADSLQDIAKEIQLQSYEVPRDFIIEPQPFTQGNGLLTGIAKLARPNLKAHYGPRLEQMYAEIAEQQAAELRALHGVDPDKPALETVLKAAQALLGVSSAELAADAHFTDLGGDSLSALSFSDLLRDIFAVEVPVGVIVSAANDLGGVAKFVDEQRHSGGTRPTAETVHGAGHTEIRAADLTLDKFIDEATLHAAPSLPKAAGIPHTVLLTGSNGYLGHYLALEWLERLDKTDGKLIVIVRGKNAEAAYGRLEEAFDTGDTELLAHFRSLADKHLEVLAGDIGDPNLGLDADTWQRLADTVDVIVHPAALVNHVLPYNQLFGPNVVGTAEIIKLAITTKIKPVTYLSTVAVAAYVDPTTFDEESDIRLISAVRPIDDGYANGYGNAKWAGEVLLREAHDLCGLPVAVFRSDMILAHSRYTGQLNVPDQFTRLILSLIATGIAPGSFYQAQTTGERPLAHYDGLPGDFTAEAITTLGTQVPEGSEGFVTYDCVNPHADGISLDNFVDWLIEAGYPIARIDNYTEWFTRFDTAIRGLSEKQKQHSLLPLLHAFEQPSAAENHGVVPAKRFQHAVQAAGIGPVGQDGTTDIPHLSRRLIVKYAKDLEQLGLL
modifications: Mycobacterium massiliense
carboxylate reductase activity for converting N7-acetyl-7-aminoheptanoate to N7-acetyl-7-aminoheptanal (NADPH consumption, absorbance at 340 nm) [3]: accepted N7-acetyl-7-aminoheptanoate as substrate
